IntAct's records for PubMed 10433268

B1: Disks large-associated protein 1 (Rattus norvegicus (Rat)), P97836-5 (parent)
chain: MIDLFKAEWVSSVCVQVSRNGRTDQVWVPQDEWTGYTPRGKDDEIPCRRMRSGSYIKAMGDEDSGDSDTSPKPSPKVAARRESYLKATQPSLTELTTLKISNEHSPKLQIRSHSYLRAVSEVSINRSLDSLDPAGLLTSPKFRSRNESYMRAMSTISQVSEMEVNGQFESVCESVFSELESQAVEALDLPMPGCFRMRSHSYVRAIEKGCSQDDECVSLRSSSPPRTTTTVRTIQSSTGVIKLSSAVEAQSSTESAQDAYMDGQGQRGDMISQSGLSNSTESLDSMKALTAAIEAANAQIHGPASQHMGSNAAAVTTTTTIATVTTEDRKKDFKKNRCLSIGIQVDDAEESEKMAESKTSSKFQSVGVQVEEEKCFRRFTRSNSVTTAVQADLDFHDNLENSLESIEDNSCPGPMARQFSRDASTSTVSIQGSGNHYHACAADDDFDTDFDPSILPPPDPWIDSITEDPLEAVQRSVCHRDGHWFLKLLQAERDRMEGWCKQMEREERENNLPEDILGKIRTAVGSAQLLMAQKFYQFRELCEENLNPNAHPRPTSQDLAGFWDMLQLSIENISMKFDELHQLKANNWKQMDPLDKKERRAPPPVPKKPAKGPAPLIRERSLESSQRQEARKRLMAAKRAASVRQNSATESAESIEIYIPEAQTRL

Variants of: B1
Settings: with Shank1, Q9WV48-4
Chain of Shank1, Q9WV48-4 (Q9WV48 other isoform, or with tags, fused parts or gaps): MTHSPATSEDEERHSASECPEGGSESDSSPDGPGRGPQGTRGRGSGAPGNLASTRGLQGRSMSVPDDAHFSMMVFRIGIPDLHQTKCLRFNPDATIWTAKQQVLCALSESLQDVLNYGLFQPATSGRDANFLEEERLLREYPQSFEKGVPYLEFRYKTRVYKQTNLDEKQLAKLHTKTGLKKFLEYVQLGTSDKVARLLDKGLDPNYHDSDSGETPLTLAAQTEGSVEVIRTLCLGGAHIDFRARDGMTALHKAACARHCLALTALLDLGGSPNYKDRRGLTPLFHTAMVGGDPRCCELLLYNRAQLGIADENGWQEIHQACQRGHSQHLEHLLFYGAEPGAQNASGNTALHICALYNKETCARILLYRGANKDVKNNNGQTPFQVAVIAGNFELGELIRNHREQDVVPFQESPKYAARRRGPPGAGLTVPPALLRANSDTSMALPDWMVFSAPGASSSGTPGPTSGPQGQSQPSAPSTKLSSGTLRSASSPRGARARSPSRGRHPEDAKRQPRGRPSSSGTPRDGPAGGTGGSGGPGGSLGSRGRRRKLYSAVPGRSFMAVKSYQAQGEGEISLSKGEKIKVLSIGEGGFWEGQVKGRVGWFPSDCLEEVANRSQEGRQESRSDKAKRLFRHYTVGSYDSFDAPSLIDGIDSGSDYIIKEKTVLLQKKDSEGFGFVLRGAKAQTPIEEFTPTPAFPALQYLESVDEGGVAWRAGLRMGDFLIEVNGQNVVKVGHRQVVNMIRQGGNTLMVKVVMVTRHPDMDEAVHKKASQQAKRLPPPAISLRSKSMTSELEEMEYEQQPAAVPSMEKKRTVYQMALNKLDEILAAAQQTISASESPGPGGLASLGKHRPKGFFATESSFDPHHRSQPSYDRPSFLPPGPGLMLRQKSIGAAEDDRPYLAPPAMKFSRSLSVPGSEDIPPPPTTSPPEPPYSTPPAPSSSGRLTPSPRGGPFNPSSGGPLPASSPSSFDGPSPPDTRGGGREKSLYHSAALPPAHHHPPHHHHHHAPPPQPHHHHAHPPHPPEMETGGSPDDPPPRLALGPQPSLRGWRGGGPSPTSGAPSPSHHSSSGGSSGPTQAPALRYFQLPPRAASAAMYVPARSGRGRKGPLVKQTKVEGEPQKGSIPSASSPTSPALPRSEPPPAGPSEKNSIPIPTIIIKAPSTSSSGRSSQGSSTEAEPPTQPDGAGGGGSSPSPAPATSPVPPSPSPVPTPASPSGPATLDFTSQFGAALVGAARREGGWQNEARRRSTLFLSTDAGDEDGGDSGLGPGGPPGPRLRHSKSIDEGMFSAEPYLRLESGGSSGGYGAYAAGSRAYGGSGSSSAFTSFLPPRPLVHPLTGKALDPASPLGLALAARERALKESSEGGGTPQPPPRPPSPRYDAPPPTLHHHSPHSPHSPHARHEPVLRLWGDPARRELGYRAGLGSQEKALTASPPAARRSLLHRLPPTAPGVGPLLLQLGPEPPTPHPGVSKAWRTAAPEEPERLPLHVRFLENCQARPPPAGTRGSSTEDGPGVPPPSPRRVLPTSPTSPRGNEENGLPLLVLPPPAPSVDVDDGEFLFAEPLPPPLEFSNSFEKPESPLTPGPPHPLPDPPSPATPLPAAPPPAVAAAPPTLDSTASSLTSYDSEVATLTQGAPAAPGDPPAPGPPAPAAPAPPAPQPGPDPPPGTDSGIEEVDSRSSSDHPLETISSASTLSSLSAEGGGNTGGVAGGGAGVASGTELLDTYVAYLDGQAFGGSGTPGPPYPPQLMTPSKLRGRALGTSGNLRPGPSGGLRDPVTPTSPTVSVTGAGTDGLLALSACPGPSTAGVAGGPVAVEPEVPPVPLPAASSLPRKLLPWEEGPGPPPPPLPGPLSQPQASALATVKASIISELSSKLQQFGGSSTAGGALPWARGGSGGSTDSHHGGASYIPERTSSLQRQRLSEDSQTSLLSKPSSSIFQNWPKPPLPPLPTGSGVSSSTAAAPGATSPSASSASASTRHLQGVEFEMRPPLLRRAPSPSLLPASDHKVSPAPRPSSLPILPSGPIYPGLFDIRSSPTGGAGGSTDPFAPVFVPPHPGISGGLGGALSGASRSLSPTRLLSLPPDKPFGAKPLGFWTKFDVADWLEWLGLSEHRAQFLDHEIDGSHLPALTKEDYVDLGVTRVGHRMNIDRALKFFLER

| effect of a mutation on the interaction | Variant |
| --- | --- |
| decreasing interaction | R665D |
| decreasing interaction | T664S |
| disrupting interaction | T664A |
| disrupting interaction | L666A |
| decreasing interaction | L666V |
